Columns and labels:
[1] = target: LecRLK-2RPAN (Salix purpurea); assay: size exclusion chromatography, self-association
[2] = target: SpG-type LecRLK-2PAN (Salix purpurea); assay: size exclusion chromatography, self-association

Row | Substance | percent monomeric [1] [%] | percent in higher-order complex (likely a trimer or tetramer) [2] [%] | percent monomeric [2] [%]
1 | LecRLK-2RPAN (receptor) | 26.4 |  | 
2 | SpG-type LecRLK-2PAN (receptor) |  | 48.2 | 51.8

Source: patent US20240000956A1
